From doi:10.1101/2023.04.15.537002, “Identification of merozoite secreted repertoire and immuno-pharmacological inhibition of a novel host-parasite interaction to block malarial infection” (bioRxiv, 2023)

T1: recombinant PfRhopH3 C-terminal fragment (PfRhopH3C; 617-865 aa) (Plasmodium falciparum, UniProt Q8I395 617-865)
T1 construct: RhopH3 (high molecular weight rhoptry protein 3) of Plasmodium falciparum, C-terminal portion, residues 617-865 (747 bp); also called rPfRhopH3C; rRhopH3C; source: recombinant, codon-optimized gene in pMTSAra, induced by L-arabinose, purified (Ni-NTA)
T1 sequence: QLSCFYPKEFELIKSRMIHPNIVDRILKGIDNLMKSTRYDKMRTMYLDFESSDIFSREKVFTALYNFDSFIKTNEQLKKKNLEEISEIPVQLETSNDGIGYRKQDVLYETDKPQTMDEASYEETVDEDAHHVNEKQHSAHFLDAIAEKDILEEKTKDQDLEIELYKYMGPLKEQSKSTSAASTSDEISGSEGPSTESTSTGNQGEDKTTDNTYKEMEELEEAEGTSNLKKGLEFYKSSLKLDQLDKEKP

B1: recombinant 14-3-3[…] Target Binding Domain (TBD; 94-246 aa) (domain or fragment, human, UniProt Q04917 94-246, looked up)
chain: ETVCNDVLSLLDKFLIKNCNDFQYESKVFYLKMKGDYYRYLAEVASGEKKNSVVEASEAAYKEAFEISKEQMQPTHPIRLGLALNFSVFYYEIQNAPEQACLLAKQAFDDAIAELDTLNEDSYKDSTLIMQLLRDNLTLWTSDQQDEEAGEGN
notes: also called 14-3-3[…] TBD; source: recombinant, PCR-amplified into pMTSAra, induced by L-arabinose, purified (Ni-NTA)
B2: recombinant human 14-3-3[…] (eta), full length (246 aa) (natural protein, UniProt Q04917 1-246, looked up)
chain: MGDREQLLQRARLAEQAERYDDMASAMKAVTELNEPLSNEDRNLLSVAYKNVVGARRSSWRVISSIEQKTMADGNEKKLEKVKAYREKIEKELETVCNDVLSLLDKFLIKNCNDFQYESKVFYLKMKGDYYRYLAEVASGEKKNSVVEASEAAYKEAFEISKEQMQPTHPIRLGLALNFSVFYYEIQNAPEQACLLAKQAFDDAIAELDTLNEDSYKDSTLIMQLLRDNLTLWTSDQQDEEAGEGN
modifications: labelled with amine-reactive dye NT-647 NHS (for MST only)
notes: human 14-3-3 protein eta, gene ID YWHAH, full length, 246 aa (738 bp); the discussion names it eta; also called 14-3-3[…] full length; r14-3-3[…]; source: recombinant, codon-optimized gene in pET-28a(+), induced by IPTG, purified (Ni-NTA)

Experiments:
[1] = target: T1, recombinant PfRhopH3 C-terminal …; assay: ELISA; PfRhopH3C (200 ng) coated overnight; overlaid with 14-3-3[…] TBD or full length; detected with anti-14-3-3[…] antibodies, O.D.450; conditions: both partners purified
[2] = target: T1, recombinant PfRhopH3 C-terminal …; assay: MST; 14-3-3[…] (10 uM) labelled with NT-647 NHS, titrated with different concentrations of PfRhopH3C; conditions: both partners purified

Binder | binding result [1] | Kd [2] [nM]
B1 | binds | –
B2 | – | 66
